{"source": "patent US20240018245A1", "about": "(Genentech, published 2024)", "key": {"[1]": {"target": "T1, CD3 (cluster of differentiation 3) (UniProt P07766 23-126)", "T1 construct": "also called CD3 antigen", "T1 sequence (P07766 23-126)": "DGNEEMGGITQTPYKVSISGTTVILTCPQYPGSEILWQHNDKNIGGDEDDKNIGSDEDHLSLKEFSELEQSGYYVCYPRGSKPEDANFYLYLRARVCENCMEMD", "test": "method not stated; monovalent KD used to calculate CD3 receptor occupancy"}, "[2]": {"target": "T2, FcRH5 (fragment crystallizable receptor-like 5) on MOLP-2 cells (human, UniProt Q96RD9 16-977)", "T2 sequence (looked up)": "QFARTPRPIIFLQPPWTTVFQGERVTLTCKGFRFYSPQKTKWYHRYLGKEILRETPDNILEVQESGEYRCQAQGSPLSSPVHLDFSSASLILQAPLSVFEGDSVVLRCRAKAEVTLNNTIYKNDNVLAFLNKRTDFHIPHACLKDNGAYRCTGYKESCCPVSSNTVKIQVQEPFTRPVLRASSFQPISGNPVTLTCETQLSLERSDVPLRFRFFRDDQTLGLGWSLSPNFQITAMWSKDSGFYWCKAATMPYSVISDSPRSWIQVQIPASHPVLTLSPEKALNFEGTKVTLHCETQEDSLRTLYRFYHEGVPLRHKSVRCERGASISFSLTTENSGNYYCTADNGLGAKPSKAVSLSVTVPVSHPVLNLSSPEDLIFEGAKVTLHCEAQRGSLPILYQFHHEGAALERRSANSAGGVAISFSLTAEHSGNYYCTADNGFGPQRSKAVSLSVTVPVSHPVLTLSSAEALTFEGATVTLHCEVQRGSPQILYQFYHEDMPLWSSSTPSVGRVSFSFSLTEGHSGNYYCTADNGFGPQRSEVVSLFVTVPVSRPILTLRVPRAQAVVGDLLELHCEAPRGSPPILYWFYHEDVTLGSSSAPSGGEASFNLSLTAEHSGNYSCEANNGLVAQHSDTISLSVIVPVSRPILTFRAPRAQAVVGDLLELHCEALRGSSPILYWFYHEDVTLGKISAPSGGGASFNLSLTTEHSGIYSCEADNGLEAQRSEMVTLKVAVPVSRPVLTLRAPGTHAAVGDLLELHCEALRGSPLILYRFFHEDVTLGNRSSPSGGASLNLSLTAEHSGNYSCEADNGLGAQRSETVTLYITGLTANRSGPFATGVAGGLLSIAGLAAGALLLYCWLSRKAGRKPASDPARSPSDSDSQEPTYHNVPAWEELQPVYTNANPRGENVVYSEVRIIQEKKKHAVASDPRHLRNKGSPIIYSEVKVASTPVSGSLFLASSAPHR", "test": "cell-based or functional assay"}, "[3]": {"target": "CD3 on T cells of human peripheral blood mononuclear cells (PBMCs) (human, UniProt P07766 23-207)", "sequence (P07766 23-207)": "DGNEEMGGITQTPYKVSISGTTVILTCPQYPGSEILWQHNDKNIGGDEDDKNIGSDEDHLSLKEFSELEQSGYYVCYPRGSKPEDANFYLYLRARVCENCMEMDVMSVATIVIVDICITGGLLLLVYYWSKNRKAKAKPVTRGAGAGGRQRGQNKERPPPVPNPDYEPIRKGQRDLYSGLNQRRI", "test": "cell-based or functional assay"}}}
{"binder": "cevostamab (bispecific antibody, human IgG1, kappa, N297G, Humanized full-length non-glycosylated IgG1 kappa, knobs-into-holes; also called BFCR4350A; RO7187797) heavy 1: not shown light 1: DIQMTQSPSSLSASVGDRVTITCKASQDVRNLVVWFQQKPGKAPKLLIYSGSYRYSGVPSRFSGSGSGTDFTLTISSLQPEDFATYYCQQHYSPPYTFGQGTKVEIKRTVAAPSVFIFPPSDEQLKSGTASVVCLLNNFYPREAKVQWKVDNALQSGNSQESVTEQDSKDSTYSLSSTLTLSKADYEKHKVYACEVTHQGLSSPVTKSFNRGEC heavy 2: EVQLVQSGAEVKKPGASVKVSCKASGFTFTSYYIHWVRQAPGQGLEWIGWIYPENDNTKYNEKFKDRVTITADTSTSTAYLELSSLRSEDTAVYYCARDGYSRYYFDYWGQGTLVTVSSASTKGPSVFPLAPSSKSTSGGTAALGCLVKDYFPEPVTVSWNSGALTSGVHTFPAVLQSSGLYSLSSVVTVPSSSLGTQTYICNVNHKPSNTKVDKKVEPKSCDKTHTCPPCPAPELLGGPSVFLFPPKPKDTLMISRTPEVTCVVVDVSHEDPEVKFNWYVDGVEVHNAKTKPREEQYGSTYRVVSVLTVLHQDWLNGKEYKCKVSNKALPAPIEKTISKAKGQPREPQVYTLPPSREEMTKNQVSLSCAVKGFYPSDIAVEWESNGQPENNYKTTPPVLDSDGSFFLVSKLTVDKSRWQQGNVFSCSVMHEALHNHYTQKSLSLSPGK light 2: not shown", "values": [{"measurement": "Kd", "setting": "[1]", "result": 2.6, "unit": "nM"}, {"measurement": "EC50 for T-cell activation in the in vitro human PBMC:MOLP-2 co-culture", "setting": "[2]", "result": 0.0588, "unit": "µg/mL"}, {"measurement": "EC50 for T-cell activation in the in vitro human PBMC:MOLP-2 co-culture", "setting": "[3]", "result": 0.0588, "unit": "µg/mL"}]}
